Usually EC50 stands for the concentration at which the effect is half-maximal. A lower EC50 goes with greater potency. A word on the Kd: it is the free concentration of one partner at which half of the binding sites on the other are occupied at equilibrium, for simple one-to-one binding. High values mean lower affinity, low ones higher affinity. As usually defined, the koff is the first-order rate constant of dissociation. Higher therefore signals a short-lived complex. One may read the kon as a measure of how fast the partners come together.

We go through 15 molecules from US20250154277A1 (CONCEPT TO MEDICINE BIOTECH, published 2025).

The target of experiment [1] is T1, human 5T4-His protein (human, UniProt Q13641 32-355).
T1 construct: also called recombinant 5T4 protein (human 5T4-his tag); human 5T4 protein; not shown: His tag
T1 sequence (looked up): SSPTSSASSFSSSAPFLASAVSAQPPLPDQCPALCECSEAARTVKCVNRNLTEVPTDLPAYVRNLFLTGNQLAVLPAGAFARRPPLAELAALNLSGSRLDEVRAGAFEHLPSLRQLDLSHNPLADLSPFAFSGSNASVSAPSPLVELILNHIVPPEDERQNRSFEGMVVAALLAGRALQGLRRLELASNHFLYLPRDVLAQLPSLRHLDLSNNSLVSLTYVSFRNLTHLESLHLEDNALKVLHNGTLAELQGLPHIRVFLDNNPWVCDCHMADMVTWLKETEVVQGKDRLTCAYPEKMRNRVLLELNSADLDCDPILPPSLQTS
Kind of experiment: ELISA, coated 5T4-His. As to the method:
To evaluate the binding activity of 14G12 humanized antibodies to human 5T4, the 14G12 chimeric antibody along with 14G12 humanized mAbs were subjected to ELISA test.
Briefly, microtiter plates were coated with human 5T4-His protein at 1 μg/ml in PBS, 100 μl/well at 4° C. overnight, then blocked with […]. Serial dilutions of antibodies were added to each well and incubated for 1 hour at 37° C. The plates were washed with PBS/Tween and then incubated with Goat Anti-Human IgG-HRP for 30 mins at 37° C. After washing, the plates were developed with TMB substrate and analyzed by spectrophotometer at OD 450 nm. As shown in FIG. 10 and Table 6, most of the humanized antibodies bound to human 5T4 at high activity.

In experiment [2] the target is T1, human 5T4-His protein. Kind of experiment: SPR Biacore, Protein A capture. As to the method: The binding of the 14G12 humanized antibodies to recombinant 5T4 protein (human 5T4-his tag) was tested with Biacore using a capture method. The mAbs were captured using Protein A chip. Serial dilution of human 5T4-his tag protein was injected over captured antibody for 120 s-180 s at a flow rate of 30 μl/min. The antigen was allowed to dissociate for 360 s-1000 s. All the experiments were carried out on a Biacore T200. Data analysis was carried out using the Biacore T200 evaluation software.
Background: Surface plasmon resonance follows binding to a sensor surface in real time, without labels.

B1: Hu14G12-2 (antibody, V domains shown)
VH: EVQLVQSGAEVKKPGATVKISCKVSGYAFSSSWMNWVQQAPGKGLEWMGRIYREDGHTNYNGKFKGRVTITADTSTDTAYMELSSLRSEDTAVYYCATGGAMDYWGQGTLVTVSS
VL: DIQMTQSPSSLSASVGDRVTITCRASQDISNYLNWYQQKPGKAPKLLIYYTSRLHSGVPSRFSGSGSGTDYTFTISSLQPEDIATYFCQQDNTLPWTFGGGTKLEIK
notes: humanized
Turning to B1, in the experiment with human 5T4-His protein [1], the EC50 worked out at 0.021 µg/mL. In the experiment with human 5T4-His protein [2], this molecule showed a Kd of 21.5 nM, a koff of 0.00436 s⁻¹ and a kon of 203000 M⁻¹ s⁻¹.

B2: Hu14G12-3 (antibody, V domains shown)
VH: EVQLVQSGAEVKKPGATVKISCKVSGYAFSSSWMNWVQQAPGKGLEWMGRIYREDGHTNYNGKFKGRVTITADTSTDTAYMELSSLRSEDTAVYYCATGGAMDYWGQGTLVTVSS
VL: DIQMTQSPSSLSASVGDRVTISCRASQDISNYLNWYQQKPGKAVKLLIYYTSRLHSGVPSRFSGSGSGTDFTFTISSLQPEDIATYFCQQDNTLPWTFGGGTKLEIK
notes: humanized
B2 had an EC50 with human 5T4-His protein [1] of 0.026 µg/mL. In addition, in the experiment with human 5T4-His protein [2], the affinity, expressed as Kd, was 27.5 nM; the koff was 0.0055 s⁻¹; the kon turned out to be 200000 M⁻¹ s⁻¹.

B3: Hu14G12-1 (antibody, V domains shown)
VH: EVQLVQSGAEVKKPGATVKISCKVSGYAFSSSWMNWVQQAPGKGLEWMGRIYREDGHTNYNGKFKGRVTITADTSTDTAYMELSSLRSEDTAVYYCATGGAMDYWGQGTLVTVSS
VL: DIQMTQSPSSLSASVGDRVTITCRASQDISNYLNWYQQKPGKAPKLLIYYTSRLHSGVPSRFSGSGSGTDFTFTISSLQPEDIATYYCQQDNTLPWTFGGGTKLEIK
notes: humanized
For the molecule B3, it took 0.021 µg/mL to reach a half-maximal effect with human 5T4-His protein [1] (EC50). In the experiment with human 5T4-His protein [2], this molecule showed a Kd of 42.7 nM, a koff of 0.0121 s⁻¹ and a kon of 283000 M⁻¹ s⁻¹.

B4: Hu14G12-43 (antibody, V domains shown)
VH: QVQLVQSGAEVKKPGASVKVSCKASGYAFSSSWMNWVRQAPGQGLEWMGRIYREDGHTNYNGKFKGRVTMTADKSTTTAYMELRSLRSDDTAVYYCANGGAMDYWGQGTLVTVSS
VL: DIQMTQSPSSLSASVGDRVTITCRASQDISNYLNWYQQKPGKAPKLLIYYTSRLHSGVPSRFSGSGSGTDYTFTISSLQPEDIATYFCQQDNTLPWTFGGGTKVEIK
notes: humanized
Take B4: the EC50 with human 5T4-His protein [1] was 0.0064 µg/mL. In the experiment with human 5T4-His protein [2], this molecule displayed a Kd of 0.844 nM, a koff of 0.0016 s⁻¹ and an association rate constant (kon) of 1.89e+06 M⁻¹ s⁻¹.

B5: Hu14G12-14 (antibody, V domains shown)
VH: EVQLVQSGAEVKKPGATVKISCKASGYAFSSSWMNWVKQAPGKGLEWIGRIYREDGHTNYNGKFKGRATITADTSTTTAYMELSSLRSEDSAVYFCANGGAMDYWGQGTLVTVSS
VL: DIQMTQSPSSLSASVGDRVTITCRASQDISNYLNWYQQKPGKAPKLLIYYTSRLHSGVPSRFSGSGSGTDYTFTISSLQPEDIATYFCQQDNTLPWTFGGGTKLEIK
notes: humanized
Regarding B5, in the experiment with human 5T4-His protein [1], the response was half-maximal at 0.014 µg/mL (EC50). In the experiment with human 5T4-His protein [2], binding was put at a Kd of 3.39 nM, the koff was found to be 0.000701 s⁻¹ and the kon is 207000 M⁻¹ s⁻¹.

B6: Hu14G12-37 (antibody, V domains shown)
VH: QVQLVQSGAEVKKPGASVKVSCKASGYAFSSSWMNWVRQAPGQGLEWMGRIYREDGHTNYNGKFKGRVTMTADKSTTTAYMELSSLRSEDTAVYYCANGGAMDYWGQGTLVTVSS
VL: DIQMTQSPSTLSASVGDRVTITCRASQDISNYLNWYQQKPGKAPKLLIYYTSRLHSGVPSRFSGSGSGTEYTLTISSLQPDDIATYFCQQDNTLPWTFGGGTKVEIK
notes: humanized
As to B6, a half-maximal effect in the experiment with human 5T4-His protein [1] (EC50) was put at 0.011 µg/mL. Besides, in the experiment with human 5T4-His protein [2], the Kd was 1.05 nM, the koff was 0.00142 s⁻¹ and the kon turned out to be 1.34e+06 M⁻¹ s⁻¹.

B7: Hu14G12-29 (antibody, V domains shown)
VH: QVQLVQSGAEVKKPGASVKVSCKASGYAFSSSWMNWVRQAPGQGLEWMGRIYREDGHTNYNGKFKGRVTMTADKSITTAYMELSRLRSDDTAVYYCANGGAMDYWGQGTLVTVSS
VL: DIQMTQSPSSLSASVGDRVTITCRASQDISNYLNWYQQKPGKAPKLLIYYTSRLHSGVPSRFSGSGSGTDYTLTISSLQPEDIATYFCQQDNTLPWTFGGGTKVEIK
notes: humanized
On to B7, for which the EC50 with human 5T4-His protein [1] turned out to be 0.0067 µg/mL. For the same molecule, in the experiment with human 5T4-His protein [2], the Kd is 2.14 nM, the koff was found to be 0.0011 s⁻¹ and the kon came to 514000 M⁻¹ s⁻¹.

B8: Hu14G12-10 (antibody, V domains shown)
VH: EVQLVQSGAEVKKPGATVKISCKVSGYAFSSSWMNWVKQAPGKGLEWIGRIYREDGHTNYNGKFKGRATITADTSTTTAYMELSSLRSEDTAVYFCANGGAMDYWGQGTLVTVSS
VL: DIQMTQSPSSLSASVGDRVTITCRASQDISNYLNWYQQKPGKAPKLLIYYTSRLHSGVPSRFSGSGSGTDYTFTISSLQPEDIATYFCQQDNTLPWTFGGGTKLEIK
notes: humanized
As for B8, in the experiment with human 5T4-His protein [1], the concentration for a half-maximal effect (EC50) was found to be 0.015 µg/mL. In the experiment with human 5T4-His protein [2], the Kd came to 2.42 nM, the dissociation rate constant (koff) was found to be 0.000512 s⁻¹ and the kon came to 212000 M⁻¹ s⁻¹.

B9: Hu14G12-32 (antibody, V domains shown)
VH: QVQLVQSGAEVKKPGASVKVSCKASGYAFSSSWMNWVRQAPGQGLEWMGRIYREDGHTNYNGKFKGRVTMTADKSITTAYMELSRLRSDDTAVYYCANGGAMDYWGQGTLVTVSS
VL: DIQMTQSPSTLSASVGDRVTITCRASQDISNYLNWYQQKPGKAPKLLIYYTSRLHSGVPSRFSGSGSGTEYTLTISSLQPDDIATYFCQQDNTLPWTFGGGTKVEIK
notes: humanized
As to B9, the concentration giving a half-maximal response (EC50) with human 5T4-His protein [1] was 0.0093 µg/mL. Moreover, in the experiment with human 5T4-His protein [2], binding was put at a Kd of 2.76 nM, the koff is 0.000979 s⁻¹ and the kon came to 355000 M⁻¹ s⁻¹.

B10: Hu14G12-6 (antibody, V domains shown)
VH: EVQLVQSGAEVKKPGATVKISCKVSGYAFSSSWMNWVQQAPGKGLEWIGRIYREDGHTNYNGKFKGRVTITADTSTDTAYMELSSLRSEDTAVYFCANGGAMDYWGQGTLVTVSS
VL: DIQMTQSPSSLSASVGDRVTITCRASQDISNYLNWYQQKPGKAPKLLIYYTSRLHSGVPSRFSGSGSGTDYTFTISSLQPEDIATYFCQQDNTLPWTFGGGTKLEIK
notes: humanized
As to B10, the EC50 with human 5T4-His protein [1] is 0.01 µg/mL. Further, in the experiment with human 5T4-His protein [2], the Kd is 2.68 nM, the koff turned out to be 0.00077 s⁻¹ and the kon came to 288000 M⁻¹ s⁻¹.

B11: Hu14G12-23 (antibody, V domains shown)
VH: QVQLVQSGAEVKKPGSSVKVSCKASGYAFSSSWMNWVRQAPGQGLEWMGRIYREDGHTNYNGKFKGRVTITADKSTTTAYMELSSLRSEDTAVYYCANGGAMDYWGQGTLVTVSS
VL: DIQMTQSPSSLSASVGDRVTITCRASQDISNYLNWYQQKPGKAPKLLIYYTSRLHSGVPSRFSGSGSGTDYTFTISSLQPEDIATYFCQQDNTLPWTFGGGTKVEIK
notes: humanized
In the experiment with human 5T4-His protein [1], B11 came in with an EC50 of 0.0071 µg/mL. In the experiment with human 5T4-His protein [2], this molecule gave a Kd of 2.58 nM, a koff of 0.000908 s⁻¹ and a kon of 352000 M⁻¹ s⁻¹.

B12: Hu14G12-47 (antibody, V domains shown)
VH: QVQLVQSGAEVKKPGASVKVSCKASGYAFSSSWMNWVRQAPGQGLEWMGRIYREDGHTNYNGKFKGRVTMTADKSTTTAYMELRSLRSDDTAVYYCANGGAMDYWGQGTLVTVSS
VL: DIQMTQSPSTLSASVGDRVTITCRASQDISNYLNWYQQKPGKAPKLLIYYTSRLHSGVPSRFSGSGSGTEYTLTISSLQPDDIATYFCQQDNTLPWTFGGGTKVEIK
notes: humanized
B12 returned an EC50 with human 5T4-His protein [1] of 0.014 µg/mL. Besides, in the experiment with human 5T4-His protein [2], the affinity, expressed as Kd, was 2.1 nM; the koff worked out at 0.000921 s⁻¹; the kon turned out to be 438000 M⁻¹ s⁻¹.

B13: Hu14G12-44 (antibody, V domains shown)
VH: QVQLVQSGAEVKKPGASVKVSCKASGYAFSSSWMNWVRQAPGQGLEWMGRIYREDGHTNYNGKFKGRVTMTADKSTTTAYMELRSLRSDDTAVYYCANGGAMDYWGQGTLVTVSS
VL: DIQMTQSPSSLSASVGDRVTITCRASQDISNYLNWYQQKPGKAPKLLIYYTSRLHSGVPSRFSGSGSGTDYTLTISSLQPEDIATYFCQQDNTLPWTFGGGTKVEIK
notes: humanized
In the experiment with human 5T4-His protein [1], B13 showed an EC50 of 0.0075 µg/mL. Moreover, in the experiment with human 5T4-His protein [2], the Kd is 1.41 nM, the koff is 0.00197 s⁻¹ and the on-rate constant (kon) amounted to 1.4e+06 M⁻¹ s⁻¹.

B14: Hu14G12-41 (antibody, V domains shown)
VH: QVQLVQSGAEVKKPGASVKVSCKASGYAFSSSWMNWVRQAPGQRLEWMGRIYREDGHTNYNGKFKGRVTITADKSATTAYMELSSLRSEDTAVYYCANGGAMDYWGQGTLVTVSS
VL: DIVMTQSPDSLAVSLGERATINCRASQDISNYLNWYQQKPGQPPKLLIYYTSRLHSGVPDRFSGSGSGTDYTLTISSLQAEDIAVYFCQQDNTLPWTFGGGTKVEIK
notes: humanized
Take B14: the response in the experiment with human 5T4-His protein [1] was half-maximal at 0.0047 µg/mL (EC50).

B15: Hu14G12-46 (antibody, V domains shown)
VH: QVQLVQSGAEVKKPGASVKVSCKASGYAFSSSWMNWVRQAPGQGLEWMGRIYREDGHTNYNGKFKGRVTMTADKSTTTAYMELRSLRSDDTAVYYCANGGAMDYWGQGTLVTVSS
VL: DIVMTQSPDSLAVSLGERATINCRASQDISNYLNWYQQKPGQPPKLLIYYTSRLHSGVPDRFSGSGSGTDYTLTISSLQAEDIAVYFCQQDNTLPWTFGGGTKVEIK
notes: humanized
In the experiment with human 5T4-His protein [1], B15 displayed a half-maximal effective concentration (EC50) of 0.023 µg/mL. This EC50 is about 4.9-fold higher than that of the molecule before.
